Results published in patent US20240209076A1 (KODIAK SCIENCES, published 2024).

B1: anti-IL-6 antibody, heavy chain F29Y, light chain WT (antibody, IgG1, V domains shown)
VH: EVQLVESGGGLVQPGGSLRLSCAASGFTYSPFAMSWVRQAPGKGLEWVAKISPGGSWTYYSDTVTGRFTFSLDTSKSTAYLQMNSLRAEDTAVYYCARQLWGYYALDIWGQGTLVTVSS
VL: DIQLTQSPSSLSASVGDRVTITCSASISVSYMYWYQQKPGKAPKLLIYDMSNLASGVPSRFSGSGSGTDFTLTISSLQPEDFATYYCMQWSGYPYTFGQGTKVEIK
notes: Full IgG1 tested; V domains derived as in m2
B2: anti-IL-6 antibody, heavy chain F32G, light chain WT (antibody, IgG1, V domains shown)
VH: EVQLVESGGGLVQPGGSLRLSCAASGFTFSPGAMSWVRQAPGKGLEWVAKISPGGSWTYYSDTVTGRFTFSLDTSKSTAYLQMNSLRAEDTAVYYCARQLWGYYALDIWGQGTLVTVSS
VL: DIQLTQSPSSLSASVGDRVTITCSASISVSYMYWYQQKPGKAPKLLIYDMSNLASGVPSRFSGSGSGTDFTLTISSLQPEDFATYYCMQWSGYPYTFGQGTKVEIK
notes: as for B1
B3: anti-IL-6 antibody, heavy chain G26R, light chain WT (antibody, IgG1, V domains shown)
VH: EVQLVESGGGLVQPGGSLRLSCAASRFTFSPFAMSWVRQAPGKGLEWVAKISPGGSWTYYSDTVTGRFTFSLDTSKSTAYLQMNSLRAEDTAVYYCARQLWGYYALDIWGQGTLVTVSS
VL: DIQLTQSPSSLSASVGDRVTITCSASISVSYMYWYQQKPGKAPKLLIYDMSNLASGVPSRFSGSGSGTDFTLTISSLQPEDFATYYCMQWSGYPYTFGQGTKVEIK
notes: as for B1
B4: anti-IL-6 antibody, heavy chain G26S, light chain WT (antibody, IgG1, V domains shown)
VH: EVQLVESGGGLVQPGGSLRLSCAASSFTFSPFAMSWVRQAPGKGLEWVAKISPGGSWTYYSDTVTGRFTFSLDTSKSTAYLQMNSLRAEDTAVYYCARQLWGYYALDIWGQGTLVTVSS
VL: DIQLTQSPSSLSASVGDRVTITCSASISVSYMYWYQQKPGKAPKLLIYDMSNLASGVPSRFSGSGSGTDFTLTISSLQPEDFATYYCMQWSGYPYTFGQGTKVEIK
notes: as for B1
B5: anti-IL-6 antibody, heavy chain G66D, light chain WT (antibody, IgG1, V domains shown)
VH: EVQLVESGGGLVQPGGSLRLSCAASGFTFSPFAMSWVRQAPGKGLEWVAKISPGGSWTYYSDTVTDRFTFSLDTSKSTAYLQMNSLRAEDTAVYYCARQLWGYYALDIWGQGTLVTVSS
VL: DIQLTQSPSSLSASVGDRVTITCSASISVSYMYWYQQKPGKAPKLLIYDMSNLASGVPSRFSGSGSGTDFTLTISSLQPEDFATYYCMQWSGYPYTFGQGTKVEIK
notes: Full IgG1 tested
B6: anti-IL-6 antibody, heavy chain G66E, light chain WT (antibody, IgG1, V domains shown)
VH: EVQLVESGGGLVQPGGSLRLSCAASGFTFSPFAMSWVRQAPGKGLEWVAKISPGGSWTYYSDTVTERFTFSLDTSKSTAYLQMNSLRAEDTAVYYCARQLWGYYALDIWGQGTLVTVSS
VL: DIQLTQSPSSLSASVGDRVTITCSASISVSYMYWYQQKPGKAPKLLIYDMSNLASGVPSRFSGSGSGTDFTLTISSLQPEDFATYYCMQWSGYPYTFGQGTKVEIK
notes: as for B1
B7: anti-IL-6 antibody, heavy chain I51R, light chain WT (antibody, IgG1, V domains shown)
VH: EVQLVESGGGLVQPGGSLRLSCAASGFTFSPFAMSWVRQAPGKGLEWVAKRSPGGSWTYYSDTVTGRFTFSLDTSKSTAYLQMNSLRAEDTAVYYCARQLWGYYALDIWGQGTLVTVSS
VL: DIQLTQSPSSLSASVGDRVTITCSASISVSYMYWYQQKPGKAPKLLIYDMSNLASGVPSRFSGSGSGTDFTLTISSLQPEDFATYYCMQWSGYPYTFGQGTKVEIK
notes: as for B1
B8: anti-IL-6 antibody, heavy chain I108E, light chain WT (antibody, IgG1, V domains shown)
VH: EVQLVESGGGLVQPGGSLRLSCAASGFTFSPFAMSWVRQAPGKGLEWVAKISPGGSWTYYSDTVTGRFTFSLDTSKSTAYLQMNSLRAEDTAVYYCARQLWGYYALDEWGQGTLVTVSS
VL: DIQLTQSPSSLSASVGDRVTITCSASISVSYMYWYQQKPGKAPKLLIYDMSNLASGVPSRFSGSGSGTDFTLTISSLQPEDFATYYCMQWSGYPYTFGQGTKVEIK
notes: as for B1
B9: anti-IL-6 antibody, heavy chain I108F, light chain WT (antibody, IgG1, V domains shown)
VH: EVQLVESGGGLVQPGGSLRLSCAASGFTFSPFAMSWVRQAPGKGLEWVAKISPGGSWTYYSDTVTGRFTFSLDTSKSTAYLQMNSLRAEDTAVYYCARQLWGYYALDFWGQGTLVTVSS
VL: DIQLTQSPSSLSASVGDRVTITCSASISVSYMYWYQQKPGKAPKLLIYDMSNLASGVPSRFSGSGSGTDFTLTISSLQPEDFATYYCMQWSGYPYTFGQGTKVEIK
notes: as for B1
B10: anti-IL-6 antibody, heavy chain I108S, light chain WT (antibody, IgG1, V domains shown)
VH: EVQLVESGGGLVQPGGSLRLSCAASGFTFSPFAMSWVRQAPGKGLEWVAKISPGGSWTYYSDTVTGRFTFSLDTSKSTAYLQMNSLRAEDTAVYYCARQLWGYYALDSWGQGTLVTVSS
VL: DIQLTQSPSSLSASVGDRVTITCSASISVSYMYWYQQKPGKAPKLLIYDMSNLASGVPSRFSGSGSGTDFTLTISSLQPEDFATYYCMQWSGYPYTFGQGTKVEIK
notes: as for B1
B11: anti-IL-6 antibody, heavy chain L100Q, light chain WT (antibody, IgG1, V domains shown)
VH: EVQLVESGGGLVQPGGSLRLSCAASGFTFSPFAMSWVRQAPGKGLEWVAKISPGGSWTYYSDTVTGRFTFSLDTSKSTAYLQMNSLRAEDTAVYYCARQQWGYYALDIWGQGTLVTVSS
VL: DIQLTQSPSSLSASVGDRVTITCSASISVSYMYWYQQKPGKAPKLLIYDMSNLASGVPSRFSGSGSGTDFTLTISSLQPEDFATYYCMQWSGYPYTFGQGTKVEIK
notes: as for B1
B12: anti-IL-6 antibody, heavy chain L106F, light chain WT (antibody, IgG1, V domains shown)
VH: EVQLVESGGGLVQPGGSLRLSCAASGFTFSPFAMSWVRQAPGKGLEWVAKISPGGSWTYYSDTVTGRFTFSLDTSKSTAYLQMNSLRAEDTAVYYCARQLWGYYAFDIWGQGTLVTVSS
VL: DIQLTQSPSSLSASVGDRVTITCSASISVSYMYWYQQKPGKAPKLLIYDMSNLASGVPSRFSGSGSGTDFTLTISSLQPEDFATYYCMQWSGYPYTFGQGTKVEIK
notes: as for B1
B13: anti-IL-6 antibody, heavy chain M34W, light chain WT (antibody, IgG1, V domains shown)
VH: EVQLVESGGGLVQPGGSLRLSCAASGFTFSPFAWSWVRQAPGKGLEWVAKISPGGSWTYYSDTVTGRFTFSLDTSKSTAYLQMNSLRAEDTAVYYCARQLWGYYALDIWGQGTLVTVSS
VL: DIQLTQSPSSLSASVGDRVTITCSASISVSYMYWYQQKPGKAPKLLIYDMSNLASGVPSRFSGSGSGTDFTLTISSLQPEDFATYYCMQWSGYPYTFGQGTKVEIK
notes: Full IgG1 tested; VL as in m2
B14: anti-IL-6 antibody, heavy chain W57F, light chain WT (antibody, IgG1, V domains shown)
VH: EVQLVESGGGLVQPGGSLRLSCAASGFTFSPFAMSWVRQAPGKGLEWVAKISPGGSFTYYSDTVTGRFTFSLDTSKSTAYLQMNSLRAEDTAVYYCARQLWGYYALDIWGQGTLVTVSS
VL: DIQLTQSPSSLSASVGDRVTITCSASISVSYMYWYQQKPGKAPKLLIYDMSNLASGVPSRFSGSGSGTDFTLTISSLQPEDFATYYCMQWSGYPYTFGQGTKVEIK
notes: as for B1
B15: anti-IL-6 antibody, heavy chain WT, light chain A25S (antibody, IgG1, V domains shown)
VH: EVQLVESGGGLVQPGGSLRLSCAASGFTFSPFAMSWVRQAPGKGLEWVAKISPGGSWTYYSDTVTGRFTFSLDTSKSTAYLQMNSLRAEDTAVYYCARQLWGYYALDIWGQGTLVTVSS
VL: DIQLTQSPSSLSASVGDRVTITCSSSISVSYMYWYQQKPGKAPKLLIYDMSNLASGVPSRFSGSGSGTDFTLTISSLQPEDFATYYCMQWSGYPYTFGQGTKVEIK
notes: as for B1
B16: anti-IL-6 antibody, heavy chain WT, light chain A25T (antibody, IgG1, V domains shown)
VH: EVQLVESGGGLVQPGGSLRLSCAASGFTFSPFAMSWVRQAPGKGLEWVAKISPGGSWTYYSDTVTGRFTFSLDTSKSTAYLQMNSLRAEDTAVYYCARQLWGYYALDIWGQGTLVTVSS
VL: DIQLTQSPSSLSASVGDRVTITCSTSISVSYMYWYQQKPGKAPKLLIYDMSNLASGVPSRFSGSGSGTDFTLTISSLQPEDFATYYCMQWSGYPYTFGQGTKVEIK
notes: as for B1
B17: anti-IL-6 antibody, heavy chain WT, light chain I27F (antibody, IgG1, V domains shown)
VH: EVQLVESGGGLVQPGGSLRLSCAASGFTFSPFAMSWVRQAPGKGLEWVAKISPGGSWTYYSDTVTGRFTFSLDTSKSTAYLQMNSLRAEDTAVYYCARQLWGYYALDIWGQGTLVTVSS
VL: DIQLTQSPSSLSASVGDRVTITCSASFSVSYMYWYQQKPGKAPKLLIYDMSNLASGVPSRFSGSGSGTDFTLTISSLQPEDFATYYCMQWSGYPYTFGQGTKVEIK
notes: as for B1

Tests used:
recombinant human IL-6 [1] = target: T1, recombinant human IL-6 (human, UniProt P05231 30-212); assay: SPR (Biacore), supernatant IgG on Protein A, 25 C
T1 construct: Flowed in solution over the captured antibodies

recombinant human IL-6 [2] = target: T1, recombinant human IL-6; assay: SPR (Biacore), purified IgG on Protein A, 37 C
Procedure: Antibodies were captured on a Protein A chip (GE) by injecting 1:20 dilution of cell supernatant at 10 μL/min for 60 seconds. […] The sensor chip was regenerated by a 60 seconds injection of 10 mM Glycine pH 1.7 at flow rate of 50 μL/min. […] For this setup, 1 μg/mL of purified antibody was injected over a Protein A chip at 10 μL/min for 25-28 seconds. Data analysis for supernatant and purified samples were performed using BIAevaluation software (GE). All sensorgrams were double reference subtracted and fit using a 1:1 Langmuir binding model.

T1 sequence (P05231 30-212 limits assumed): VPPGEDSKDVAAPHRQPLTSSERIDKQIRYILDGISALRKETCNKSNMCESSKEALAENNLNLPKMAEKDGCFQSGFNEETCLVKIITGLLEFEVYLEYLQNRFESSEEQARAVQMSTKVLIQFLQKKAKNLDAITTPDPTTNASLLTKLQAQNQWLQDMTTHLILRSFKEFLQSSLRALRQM

Binder	Kd (recombinant human IL-6 [1]) [nM]	koff (recombinant human IL-6 [1]) [s⁻¹]	kon (recombinant human IL-6 [1]) [M⁻¹ s⁻¹]	Kd (recombinant human IL-6 [2]) [nM]	koff (recombinant human IL-6 [2]) [s⁻¹]	kon (recombinant human IL-6 [2]) [M⁻¹ s⁻¹]
B1	0.266	0.000133	499000	0.444	0.000374	842000
B2	0.318	0.000133	418000	0.569	0.00037	650000
B3	0.302	0.000121	402000	0.465	0.000326	702000
B4	0.209	0.000115	551000	0.463	0.00039	842000
B5	0.0902	0.000117	1.3e+06	0.0695	0.000136	1.96e+06
B6	0.107	0.00011	1.02e+06	0.0895	0.000171	1.91e+06
B7	0.165	7.6e-05	462000	0.505	0.000343	679000
B8	0.305	0.000174	571000	0.404	0.000372	921000
B9	0.399	0.000146	365000	0.587	0.000401	683000
B10	0.256	0.000141	554000	0.391	0.000336	858000
B11	0.384	0.000153	398000	0.499	0.00041	823000
B12	0.314	0.000185	591000	0.634	0.000541	852000
B13	0.39	0.000115	296000	0.394	0.000236	599000
B14	0.222	0.000128	577000	0.524	0.000453	864000
B15	0.197	0.000105	535000	0.438	0.000342	782000
B16	0.235	0.000119	508000	0.425	0.000378	889000
B17	0.443	0.000193	436000	0.685	0.00069	1.01e+06
